This note sets out measurements from US6673571B2, “Polypeptides having aminopeptidase activity and nucleic acids encoding same” (Novozymes Biotech, Inc., priority 1997, dated 2004).

A short description of data set [1]: Specific activity in alanyl-aminopeptidase units (AAU). Conditions: Ala-pNa, pH 7.5, 22° C. Type of data set: biochemical. As to the method:
The aminopeptidase I dosages used were based on alanyl-aminopeptidase units (AAU) determined by the hydrolysis of Ala-pNa at pH 7.5. One AAU unit of the aminopeptidase I is defined as the quantity of an enzyme which hydrolyses 1.0 micromole of Ala-pNa per minute in a 9.1 mM solution of Ala-pNa at pH 7.5, 22° C., and ionic strength=0.05.
The specific activity of the purified aminopeptidase I was approximately 12 AAU/mg enzyme. Therefore, a dosage of 0.24 AAU per 200 mg soy protein, for example, corresponded to 0.1 g enzyme per kg soy protein.

The nature of data set [2]: Substrate specificity: initial rates of hydrolysis of para-nitroanilides. Type of data set: biochemical. Conditions: Gly-Phe-pNA versus Ala-Ala-pNA.
Data set [3] can be described thus: Temperature stability (residual activity after 20 minutes incubation). Conditions: pH 7.5. The format is physicochemical. As to the method:
The temperature stability of aminopeptidase I was determined by incubating the enzyme for 20 minutes in 50 mM sodium phosphate pH 7.5 buffer at temperatures in the range of 35° C. to 55° C. followed by cooling on ice and measuring the residual activity using Ala-pNA as substrate at pH 7.5 as described above.

A short description of data set [4]: Isoelectric point by activity staining method. The format is physicochemical. As to conditions: freshly prepared enzyme. From the text: The isoelectric point of the aminopeptidase is variable since the isoelectric point of the freshly prepared enzyme is estimated as 8.4 using an activity staining method, however, the isoelectric point varies from 7.4 to 8.5 during the course of purification and/or storage. The uncertainty of the isoelectric point may be due to the self digestion of the aminopeptidase from its amino terminal.

Data set [5] can be described thus: pH optimum / pH profile with Ala-pNA. The format is biochemical. Conditions: room temperature. As to the method:
The pH optimum for the 67 kDa aminopeptidase I was determined using the following protocol. The buffer solutions at different pH's were prepared by adding distilled water to 4.25 g of sodium acetate and 3.78 g of Tris (free base) to a final volume of 250 ml and adjusting the pH to 8.5, 8.0, 7.5, 7.0, 6.5, 5.80, 5.5, and 5.0 with 36.5-38% HCl. Aliquots of 10 ml were removed at each pH. A 20 μl volume of a 100 mg/ml solution of Ala-pNA in DMSO was added to 980 μl of each buffer solution. The pH was then determined to be 8.5, 8.0, 7.57, 7.30, 7.09, 6.68, 6.14, and 5.25 for the buffer solutions after the addition of the substrate. Another solution of substrate at a concentration of 2 mg/ml was prepared at the various pHs. The reaction was initiated by the addition of 10 μl of enzyme solution, diluted 5-fold in 10 mM Tris-HCl pH 7.5, to 200 μl of substrate at the various pHs at room temperature and monitored at 405 nm.
There was no detectable autohydrolysis of Ala-pNa in the pH range 5.25-8.5.

A short description of data set [6]: pH optimum / pH profile with Ala-pNA. The format is biochemical.
The next data set concerns gelatin. Description: Degree of hydrolysis (DH) in gelatin hydrolysis, OPA method. Type of data set: biochemical. As to conditions: 50° C., 18 hours. As to the method: The aminopeptidase I was added in increased dosage to either a low or a high background of FLAVOURZYME™ and ALCALASE® as performed in Example 7.
Hydrolysis was carried out in 200 μl reactions in Eppendorf tubes. The substrate gelatin (Merck) was dissolved in distilled water at 85° C. for 5 minutes. After cooling to 50° C., the pH was adjusted to 6.5. The final gelatin concentration was adjusted to 2% after the addition of enzymes. The substrate concentration in each reaction was calculated to be 4 mg.
The hydrolysis reactions were performed at 50° C. for 18 hours. Enzymes were inactivated at 85° C. for 5 minutes followed by centrifugation. DH was calculated on the basis of the total protein content of hydrolysate using the OPA method.

B1: Sphingomonas capsulata aminopeptidase I: purified aminopeptidase of 67 kDa from Sphingomonas capsulata IFO 12533; deduced amino acid sequence SEQ ID NO:2 (protein)
chain: MRKTPQGIGLLSALSTSTLALATLILAQPALAQVQPASNSRPMAVPIAHGVPDAQDVPYPGTIGLQIDATDLATGAFRVVETVPVAADAKELILQLPAWLPGEHGNRGPVAELAGITFEAKGQKLAWTRDPVEVNAFHIPLPAGTSEVVARFIHTSPLRDSEGRITVTREMLNVQWEKMSLYPAGHYVRQIKVRPTVSFPQGWTVFTALDGKTQSGAGNTVTWAETDYETLVDSPIFAGLYAARHDLGHNVYFDLVADKPELLAIKPENLAAYRNLADEAVGAFGARHFDHYDFLLALTDRMGSIGLEHHRSSENQQEPKSLTDWAAYDWDRNVIAHEFSHSWDGKYRRSAKLWTPDYRQPMQDNLLWVYEGQTQFWGLVLAARSGVQSKDVVLGSLANYAGTFTQTAGRDWRSVEDTTMDPIFAARKPKPYSSLTRNEDYYTEGALVWLEADQIIRDGTGGKKGLDDFAKAFFGVRDGDWGVLTYEFDDVVKTLNGVYPYDWATFLKTRLQTPGQPVPLGGIERGGYKLEFKDEPNPYDKARMADAKVLSLFNSLGVTLDKDGKVTASRWDGPAFKAGLVSGMQVMAVNGDAYDADKLKGAITNAKTGNPGAGRPIELLVKRDDRFVTLPITYADGLRWPWLVRTAPGTAPTGLDKLLAPHASKLPVGKAAK
Take B1: the specific activity result in data set [1] is listed as “approximately 12 AAU/mg enzyme”. Further, in data set [2], the “hydrolysis of dipeptide substrates” value is recorded as “hydrolysed Gly-Phe-pNA more quickly than Ala-Ala-pNA”. Also, the residual activity result is listed as “approximately 60%” in data set [3] (45° C.) and “completely inactivated” in data set [3] (50° C.). The temperature stability result in data set [3] (up to 40° C.) is on record as “approximately 100%”. In data set [4], the isoelectric point is listed as approximately 8.4. For the same molecule, the “Relative activity (%)” value is 24.9% in data set [5] (pH 5.25, Ala-pNA); 56.4% in data set [5] (pH 6.14, Ala-pNA); 78.4% in data set [5] (pH 6.68, Ala-pNA); 99.4% in data set [5] (pH 7.09, Ala-pNA); 100% in data set [5] (pH 7.30, Ala-pNA); 92.8% in data set [5] (pH 7.57, Ala-pNA). For the same molecule, the “Relative activity (%)” value in data set [5] (pH 8.0, Ala-pNA) is 61%; in data set [5] (pH 8.49, Ala-pNA), 24.2%. The Michaelis-Menten constant (Km) (usually the substrate concentration at which the rate is half of its maximum) in data set [6] (Ala-pNA, pH 7.5) is 2500 µM. The “kinetics of hydrolysis of Ala-pNA” value in data set [6] (pH 5.5, apparent Km and Vmax negative due to activation by substrate) is reported as “did not follow Michaelis-Menten kinetics”. The DH is given as 61% in the data set with gelatin (0.2 U/4 mg gelatin added to low FLAVOURZYME background (2%) + 1% ALCALASE, from DH 38%) and 61% with gelatin (added to 7% FLAVOURZYME + 1% ALCALASE).
